Source: PMC4868709 (2015)

B1: purified I domain of CD147 (domain or fragment)
chain: PRVKAVKSSEHINEGETAMLVCKSESVPPVTDWAWYKITDSEDKALMNGSESRFFVSSSQGRSELHIENLNMEADPGQYRCNGTSSKGSDQAIIT
B2: purified C2 domain of CD147 (domain or fragment)
chain: AAGTVFTTVEDLGSKILLTCSLNDSATEVTGHRWLKGGVVLKEDALPGQKTEFKVDSDDQWGEYSCVFLPEPMGTANIQLHG
B3: purified His-tagged Ig-like domains of CD147 (CD147ECP-his) (domain or fragment)
chain: AAGTVFTTVEDLGSKILLTCSLNDSATEVTGHRWLKGGVVLKEDALPGQKTEFKVDSDDQWGEYSCVFLPEPMGTANIQLHGPPRVKAVKSSEHINEGETAMLVCKSESVPPVTDWAWYKITDSEDKALMNGSESRFFVSSSQGRSELHIENLNMEADPGQYRCNGTSSKGSDQAIITLRVRSHLAAL

The binders below were run against purified Annexin A2 (UniProt P07355 1-339) (assay: SPR).
Chain of purified Annexin A2 (P07355 whole entry): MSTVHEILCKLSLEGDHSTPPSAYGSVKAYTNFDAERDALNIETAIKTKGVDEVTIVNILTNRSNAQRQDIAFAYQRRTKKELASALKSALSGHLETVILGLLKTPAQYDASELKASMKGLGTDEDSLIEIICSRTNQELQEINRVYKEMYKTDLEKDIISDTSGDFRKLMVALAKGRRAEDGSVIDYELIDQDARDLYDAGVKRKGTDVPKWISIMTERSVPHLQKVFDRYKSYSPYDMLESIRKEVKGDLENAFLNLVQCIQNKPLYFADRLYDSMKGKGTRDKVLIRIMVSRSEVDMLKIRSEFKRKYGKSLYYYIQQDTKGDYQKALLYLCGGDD
B1 gave a koff of 0.00307 s⁻¹. Work on B2 yielded a koff of 1.14 s⁻¹. Binder B3 has a koff of 1.14 s⁻¹.
